Results as given in patent publication US12529083B2, “CYP76AD1-beta clade polynucleotides, polypeptides, and methods for producing betalains” (YEDA RESEARCH AND DEVELOPMENT CO. LTD., priority 2015, dated 2026).

Test system: tyrosine hydroxylation to L-DOPA
Assay: Transient expression in N. benthamiana leaves, LC-MS detection of L-DOPA
Format: in vivo, Nicotiana benthamiana
Conditions: vector or gene infiltrated without BvDODA1, LC-MS
Method: In all cases, agrobacteria were grown overnight in LB media and brought to a final O.D.600 0.2 in infiltration buffer. When co-infiltrated, agrobacteria carrying separate constructs were each brought to O.D.600 0.2 and mixed in a 1:1 ratio before infiltration. Tissues used for subsequent LC-MS analysis were sampled from leaves 7 days post infiltration. For LC-MS analysis of L-DOPA and betalains, 3-4 biological replicates for each experiment were sampled, each consisting of infiltrated tissues from 2-3 different leaves. For L-DOPA analysis, samples were extracted as described above and analyzed using a UPLC/PDA-MSMS instrument, where a UPLC separation module (Waters Acquity) was connected to a photodiode array detector (Waters Acquity 2996, 190-800 nm), and (on-line) to a triple quadrupole MS detector (Waters Xevo TQ MS), equipped with an ESI source. […] Samples were analyzed in positive ionization mode, using the following settings: capillary—2 kV, cone—26 eV, with two transitions 198.1>152.1 (collision—15 eV) and 198.1>181.1 (collision—10 eV) used for compound assignment. […]

B1: CYP76AD15: Mirabilis jalapa cytochrome P450, functional ortholog of CYP76AD6, catalyzing formation of L-DOPA from tyrosine (SEQ ID NO: 44) (protein, listed as Mirabilis jalapa)
chain: MENTMLGVILATIFLTFHIMKMLFSPSKVKLPPGPRPLPIIGNILELGDKPHRSFANLAKIHGPLVTLKLGSVTTIVVSSSEVAKEMFLKNDQPLANRTIPDSVRAGNHDKLSMSWLPVSPKWRNLRKISAVQLLSTQRLDASQAHRQAKIKQLIEYVKKCSKIGQYVDIGQVAFTTSLNLLSNTFFSKELASFDSDNAQEFKQLMWCIMEEIGRPNYADYFPILGYVDPFGARRRLSRYFDQLIEVFQVIIRERLTHDNNIVGNNNDVLATLLDLYKQNELTMDEINHLLVDIFDAGTDTTASTLEWAMSELIKNPHIMAKAQEEVRRATMSHGGATVAEIQESDINNLPYIQSIIKETLRLHPPTVFLLPRKADVDVQLFGYVVPKNAQVLVNLWAIGRDPNVWPDPEVFSPERFMDCEIDVKGRDFELLPFGAGRRICPGLSLAYRMLNLMLANMVHSFDWKLPGVENGSGSEMDSLDMDEKFGITLQKVQPLKVIPVSRK
Question: Which L-DOPA production does the source give for B1 here?
Answer: Its L-DOPA production is “L-DOPA production when infiltrated alone”.
